Values of other authors in US20130064803A1, “BIO-REPLENISHMENT (BioRep) FOR COGNITIVE HEALTH” (Naidu LP, priority 2011, published 2013).

Settings: intravenous infusion

B1: LF: 80-kD heparan- and metal-binding glycoprotein, member of the transferrin super-family (protein, UniProt P02788 20-710, looked up)
Lactotransferrin: GRRRSVQWCAVSQPEATKCFQWQRNMRKVRGPPVSCIKRDSPIQCIQAIAENRADAVTLDGGFIYEAGLAPYKLRPVAAEVYGTERQPRTHYYAVAVVKKGGSFQLNELQGLKSCHTGLRRTAGWNVPIGTLRPFLNWTGPPEPIEAAVARFFSASCVPGADKGQFPNLCRLCAGTGENKCAFSSQEPYFSYSGAFKCLRDGAGDVAFIRESTVFEDLSDEAERDEYELLCPDNTRKPVDKFKDCHLARVPSHAVVARSVNGKEDAIWNLLRQAQEKFGKDKSPKFQLFGSPSGQKDLLFKDSAIGFSRVPPRIDSGLYLGSGYFTAIQNLRKSEEEVAARRARVVWCAVGEQELRKCNQWSGLSEGSVTCSSASTTEDCIALVLKGEADAMSLDGGYVYTAGKCGLVPVLAENYKSQQSSDPDPNCVDRPVEGYLAVAVVRRSDTSLTWNSVKGKKSCHTAVDRTAGWNIPMGLLFNQTGSCKFDEYFSQSCAPGSDPRSNLCALCIGDEQGENKCVPNSNERYYGYTGAFRCLAENAGDVAFVKDVTVLQNTDGNNNEAWAKDLKLADFALLCLDGKRKPVTEARSCHLAMAPNHAVVSRMDKVERLKQVLLHQQAKFGRNGSDCPDKFCLFQSETKNLLFNDNTECLARLHGKTTYEKYLGPQYVAGITNLKKCSTSPLLEACEFLRK
In the case of B1, the “time to reach the cerebrospinal fluid” value is given as at most 30 min.
